Measured values published in article PMC4980433 (Molecular Cell, 2016).

B1: TNKS SAM domain (1,018-1,093), wild type [human] / itself (parent)
chain: ERKEGEVAGLDMNISQFLKSLGLEHLRDIFETEQITLDVLADMGHEELKEIGINAYGHRHKLIKGVERLLGGQQGT

Variants of: B1
Assay: SEC-MALS
Conditions: with itself; 0.5 mM; n = 2

Variant | screen value [kDa]
ERKEGEVAGLDMNISQFLKSLGLEHLRDIFETEQITLDWLADMGHEELKEIGINAAGHRHKLIKGVERLLGGQQGT [chain 1 V39W Y56A] | 9.3
ERKEGEVAGLDMNISQFLKSLGLEHLRDIFETEQITLDVLADMGHEELKEIGINAAGHRHKLIKGVERLLGGQQGT [chain 1 Y56A] | 10.4
ERKEGEVAGLDMNISQFLKSLGLEHLRDIFETEQITLDWLADMGHEELKEIGINAYGHRHKLIKGVERLLGGQQGT [chain 1 V39W] | 10.6
